Measured values taken from patent US20190330296A1 (Janssen / Centocor, published 2019).
Values joined by “and” are separate entries in the source; they are usually repeats but may differ in a detail not shown here. Equal values may be shown once.

T1: human neuropeptide Y2 receptor (human, UniProt P49146 1-381)
T1 sequence (looked up): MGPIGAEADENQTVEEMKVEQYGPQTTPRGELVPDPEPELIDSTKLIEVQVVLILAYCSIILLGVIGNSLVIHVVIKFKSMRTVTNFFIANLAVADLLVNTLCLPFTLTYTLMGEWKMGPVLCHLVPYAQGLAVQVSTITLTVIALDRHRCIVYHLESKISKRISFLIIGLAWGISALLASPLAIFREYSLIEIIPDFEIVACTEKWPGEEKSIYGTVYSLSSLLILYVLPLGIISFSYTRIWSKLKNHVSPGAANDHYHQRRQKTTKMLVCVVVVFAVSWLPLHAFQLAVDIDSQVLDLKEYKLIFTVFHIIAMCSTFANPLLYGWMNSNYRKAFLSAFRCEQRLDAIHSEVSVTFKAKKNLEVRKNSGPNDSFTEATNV


Experiments:
human GLP-1 receptor = human GLP-1 receptor (human, UniProt P43220 24-463); assay: cell-based or functional assay
human GLP-1 receptor, sequence (P43220 24-463): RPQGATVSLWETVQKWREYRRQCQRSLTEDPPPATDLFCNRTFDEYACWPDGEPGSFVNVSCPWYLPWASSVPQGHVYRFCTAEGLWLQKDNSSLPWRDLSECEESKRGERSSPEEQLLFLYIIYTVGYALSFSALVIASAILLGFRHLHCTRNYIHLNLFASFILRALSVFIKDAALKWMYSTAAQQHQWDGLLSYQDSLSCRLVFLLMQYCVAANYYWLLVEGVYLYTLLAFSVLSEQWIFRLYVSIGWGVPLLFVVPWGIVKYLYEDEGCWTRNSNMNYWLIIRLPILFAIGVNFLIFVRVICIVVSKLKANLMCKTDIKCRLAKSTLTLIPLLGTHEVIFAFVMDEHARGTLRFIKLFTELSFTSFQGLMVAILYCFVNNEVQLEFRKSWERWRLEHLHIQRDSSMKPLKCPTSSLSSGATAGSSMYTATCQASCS

[1] = molecular target: T1, human neuropeptide Y2 receptor; assay: cell-based or functional assay

Binder	Human GLP1R EC50 (human GLP-1 receptor)	Human Y2R EC50 [1]
GLP-1 fusion peptide GF27 (SEQ ID NO:139) (Fc fusion) HGEGTFTSDVSSYLEEQAAKEFIAWLVKGGGAPAPAPAPAPAPAPAPAPAPAPAPAGPPCPPCPAPEAAGGPSVFLFPPKPKDTLMISRTPEVTCVVVDVSQEDPEVQFNWYVDGVEVHNAKTKPREEQFNSTYRVVSVLTVLHQDWLNGKEYKCKVSNKGLPSSIEKTISKAKGQPREPQVYTLPPSQEEMTKNQVSLTCLVKGFYPSDIAVEWESNGQPENNYKTTPPVLDSDGSFFLYSRLTVDKSRWQEGNVFSCSVMHEALHNHYTQKSLSLSLGAPAPAPAPAPAPCPEEP	54 pM	–
GLP-1 fusion peptide GF54 (SEQ ID NO:166) (Fc fusion) HGEGTFTSDVSSYLEEQAAKEFIAWLVKGGGASAPAPAPAPAPAPAPAPAPAPGSCPPCPAPEAAGGPSVFLFPPKPKDTLMISRTPEVTCVVVDVSQEDPEVQFNWYVDGVEVHNAKTKPREEQFNSTYRVVSVLTVLHQDWLNGKEYKCKVSNKGLPSSIEKTISKAKGQPREPQVYTLPPSQEEMTKNQVSLTCLVKGFYPSDIAVEWESNGQPENNYKTTPPVLDSDGSFFLYSRLTVDKSRWQEGNVFSCSVMHEALHNHYTQKSLSLSLGKASGSAPAPAPEEEPCA	35 pM and 53 pM	–
GLP-1 fusion peptide coupled cyclic PYY peptide conjugate SEQ ID NO:239 (Fc fusion, [cyclo-(G2-COCH2-C30), K(AcBr)11, N-Me-R35]-PYY2-36; Br displaced on conjugation to the linker Cys; C-terminal amide; Cys of the second linker peptide thioether-linked to the Lys11 side chain of the cyclic PYY peptide) HGEGTFTSDVSSYLEEQAAKEFIAWLVKGGGASAPAPAPAPAPAPAPAPAPAPGSCPPCPAPEAAGGPSVFLFPPKPKDTLMISRTPEVTCVVVDVSQEDPEVQFNWYVDGVEVHNAKTKPREEQFNSTYRVVSVLTVLHQDWLNGKEYKCKVSNKGLPSSIEKTISKAKGQPREPQVYTLPPSQEEMTKNQVSLTCLVKGFYPSDIAVEWESNGQPENNYKTTPPVLDSDGSFFLYSRLTVDKSRWQEGNVFSCSVMHEALHNHYTQKSLSLSLGKASGSAPAPAPEEEPCA peptide: GISPEAPGEKASPEELNRYYASLRHYLNCVTRQRY	42 pM	6 pM
GLP-1 fusion peptide GF40 (SEQ ID NO:152) (Fc fusion) HGEGTFTSDVSSYLEEQAAKEFIAWLVKGGGASGGGGSGGGGSCPPCPAPEAAGGPSVFLFPPKPKDTLMISRTPEVTCVVVDVSQEDPEVQFNWYVDGVEVHNAKTKPREEQFNSTYRVVSVLTVLHQDWLNGKEYKCKVSNKGLPSSIEKTISKAKGQPREPQVYTLPPSQEEMTKNQVSLTCLVKGFYPSDIAVEWESNGQPENNYKTTPPVLDSDGSFFLYSRLTVDKSRWQEGNVFSCSVMHEALHNHYTQKSLSLSLGKASGSAPAPAPEEEPCA	207 pM	–
GLP-1 fusion peptide coupled cyclic PYY peptide conjugate SEQ ID NO:249 (Fc fusion, [cyclo-(G2-E30), S4, K(AcBr)11, N-Me-R35]-PYY2-36; Br displaced on conjugation to the linker Cys; C-terminal amide; Cys of the second linker peptide thioether-linked to the Lys11 side chain of the cyclic PYY peptide) HGEGTFTSDVSSYLEEQAAKEFIAWLVKGGGASGGGGSGGGGSCPPCPAPEAAGGPSVFLFPPKPKDTLMISRTPEVTCVVVDVSQEDPEVQFNWYVDGVEVHNAKTKPREEQFNSTYRVVSVLTVLHQDWLNGKEYKCKVSNKGLPSSIEKTISKAKGQPREPQVYTLPPSQEEMTKNQVSLTCLVKGFYPSDIAVEWESNGQPENNYKTTPPVLDSDGSFFLYSRLTVDKSRWQEGNVFSCSVMHEALHNHYTQKSLSLSLGKASGSAPAPAPEEEPCA peptide: not shown	148 pM	143 pM
GLP-1 fusion peptide coupled cyclic PYY peptide conjugate SEQ ID NO:248 (Fc fusion, [cyclo-(G2-COCH2-C30), K(AcBr)11, N-Me-R35]-PYY2-36; Br displaced on conjugation to the linker Cys; C-terminal amide; Cys of the second linker peptide thioether-linked to the Lys11 side chain of the cyclic PYY peptide) HGEGTFTSDVSSYLEEQAAKEFIAWLVKGGGASGGGGSGGGGSCPPCPAPEAAGGPSVFLFPPKPKDTLMISRTPEVTCVVVDVSQEDPEVQFNWYVDGVEVHNAKTKPREEQFNSTYRVVSVLTVLHQDWLNGKEYKCKVSNKGLPSSIEKTISKAKGQPREPQVYTLPPSQEEMTKNQVSLTCLVKGFYPSDIAVEWESNGQPENNYKTTPPVLDSDGSFFLYSRLTVDKSRWQEGNVFSCSVMHEALHNHYTQKSLSLSLGKASGSAPAPAPEEEPCA peptide: GISPEAPGEKASPEELNRYYASLRHYLNCVTRQRY	264 pM	18 pM
GLP-1 fusion peptide coupled cyclic PYY peptide conjugate SEQ ID NO:250 (Fc fusion, [cyclo-(G2-E30), S4, K(AcBr)11, psi-(R35,Y36)]-PYY2-36; Br displaced on conjugation to the linker Cys; C-terminal amide; Cys of the second linker peptide thioether-linked to the Lys11 side chain of the cyclic PYY peptide) HGEGTFTSDVSSYLEEQAAKEFIAWLVKGGGASGGGGSGGGGSCPPCPAPEAAGGPSVFLFPPKPKDTLMISRTPEVTCVVVDVSQEDPEVQFNWYVDGVEVHNAKTKPREEQFNSTYRVVSVLTVLHQDWLNGKEYKCKVSNKGLPSSIEKTISKAKGQPREPQVYTLPPSQEEMTKNQVSLTCLVKGFYPSDIAVEWESNGQPENNYKTTPPVLDSDGSFFLYSRLTVDKSRWQEGNVFSCSVMHEALHNHYTQKSLSLSLGKASGSAPAPAPEEEPCA peptide: GISPEAPGEKASPEELNRYYASLRHYLNEVTRQRY	213 pM	10 pM
GLP-1 fusion peptide GF41 (SEQ ID NO:153) (Fc fusion) HGEGTFTSDVSSYLEEQAAKEFIAWLVKGGGASGGGGSGGGGSGGGGSGGGGSCPPCPAPEAAGGPSVFLFPPKPKDTLMISRTPEVTCVVVDVSQEDPEVQFNWYVDGVEVHNAKTKPREEQFNSTYRVVSVLTVLHQDWLNGKEYKCKVSNKGLPSSIEKTISKAKGQPREPQVYTLPPSQEEMTKNQVSLTCLVKGFYPSDIAVEWESNGQPENNYKTTPPVLDSDGSFFLYSRLTVDKSRWQEGNVFSCSVMHEALHNHYTQKSLSLSLGKASGSAPAPAPEEEPCA	49 pM	–
